Earlier results as cited in publication PMC11267001.

Target: DOCK5ΔC/ELMO1 DOCK5 1-1642 (Homo sapiens) (UniProt Q9H7D0)

## RhoG (from UniProt P84095)
  Kd: 10 µM
